Reference: article PMC5814901

Legend:
[1] = target: UvrAB complex formed beforehand on DNA tightropes (Bacillus caldotenax) (UniProt P56981); test: single-molecule fluorescence colocalisation on DNA tightropes (three colours); UvrA, UvrB and UvrC (1:1:0.5 nM) labelled with different Qdots (565, 605, 655 nm), incubated together, then added to undamaged λ-DNA tightropes; room temperature; ABC buffer (50 mM Tris-HCl pH 7.5, 50 mM KCl, 1 mM ATP, 10 mM MgCl2, 10 mM DTT)
[2] = target: UvrAB complex formed beforehand on DNA tightropes (Bacillus caldotenax) (UniProt P56981); test: single-molecule fluorescence colocalisation on DNA tightropes (two colours); UvrAB complexes first formed on undamaged DNA tightropes with the Qdot on UvrB (unlabelled, non-biotinylated UvrA) or on UvrA; streptavidin-Qdot-labelled biotin-UvrC of another colour then added; dual-coloured complexes counted; room temperature; ABC buffer
[3] = target: UvrA (Bacillus caldotenax) (Bacillus caldotenax); test: single-molecule fluorescence colocalisation on DNA tightropes (three colours); UvrA, UvrB and UvrC (1:1:0.5 nM) labelled with different Qdots (565, 605, 655 nm), incubated together, then added to undamaged λ-DNA tightropes; room temperature; ABC buffer (50 mM Tris-HCl pH 7.5, 50 mM KCl, 1 mM ATP, 10 mM MgCl2, 10 mM DTT)
[4] = target: UvrC (Bacillus caldotenax) (Bacillus caldotenax); test: as above

Row | Molecule | occurrence of the triple-coloured complex among DNA-bound Qdots [1] | occurrence of the dual-colour complex among DNA-bound Qdots [2] | occurrence of the complex among DNA-bound Qdots [3] | occurrence of the complex among DNA-bound Qdots [4]
1 | UvrC (Bacillus caldotenax) (natural protein) | 1.6% | 16.6% | – | –
2 | UvrB (Bacillus caldotenax) (natural protein) MVEGRFQLVAPYEPQGDQPQAIAKLVDGLRRGVKHQTLLGATGTGKTFTISNVIAQVNKPTLVIAHNKTLAGQLYSELKEFFPHNAVEYFVSYYDYYQPEAYVPQTDTYIEKDAKINDEIDKLRHSATSALFERRDVIIVASVSCIYGLGSPEEYRELVVSLRVGMEIERNALLRRLVDIQYDRNDIDFRGTFRVRGDVVEIFPASRDEHCIRVEFFGDEIERIREVDALTGKVLGEREHVAIFPASHFVTREEKMRLAIQNIEQELEERLAELRAQGKLLEAQRLEQRTRYDLEMMREMGFCSGIENYSRHLALRPPGSTPYTLLDYFPDDFLIIVDESHVTLPQLRGMYNGDRARKQVLVDHGFRLPSALDNRPLTFEEFEQKINQIIYVSATPGPYELEHSPGVVEQIIRPTGLLDPTIDVRPTKGQIDDLIGEIRERVERNERTLVTTLTKKMAEDLTDYLKEAGIKVAYLHSEIKTLERIEIIRDLRLGKYDVLVGINLLREGLDIPEVSLVAILDADKEGFLRSERSLIQTIGRAARNANGHVIMYADTITKSMEIAIQETKRRRAIQEEYNRKHGIVPRTVKKEIRDVIRATYAAEETEMYEAKPAAAMTKQEREELIRTLEAEMKEAAKALDFERAAQLRDIIFELKAEG | – | – | 6.7% | 1.6%
